This is an account of results in PMC10716780, “The multistep oxidation of cholesterol to pregnenolone by human cytochrome P450 11A1 is highly processive” (The Journal of Biological Chemistry, 2023).

The target in series [1] is T1, human P450 11A1 (Homo sapiens, UniProt P05108).
T1 sequence (P05108 41-521 limits assumed): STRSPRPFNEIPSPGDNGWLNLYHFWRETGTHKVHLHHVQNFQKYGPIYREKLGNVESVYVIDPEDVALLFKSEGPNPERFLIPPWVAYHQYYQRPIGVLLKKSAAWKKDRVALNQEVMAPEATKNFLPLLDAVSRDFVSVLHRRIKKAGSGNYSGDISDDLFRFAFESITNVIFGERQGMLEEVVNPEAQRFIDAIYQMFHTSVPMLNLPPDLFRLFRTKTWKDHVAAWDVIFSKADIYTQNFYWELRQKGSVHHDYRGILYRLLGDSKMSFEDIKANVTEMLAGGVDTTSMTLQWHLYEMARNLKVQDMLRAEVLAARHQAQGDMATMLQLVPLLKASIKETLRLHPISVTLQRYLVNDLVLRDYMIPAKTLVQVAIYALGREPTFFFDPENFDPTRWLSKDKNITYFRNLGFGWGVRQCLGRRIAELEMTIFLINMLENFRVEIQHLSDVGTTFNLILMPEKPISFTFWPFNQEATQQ
T1 sequence (P00257 59-186 partner): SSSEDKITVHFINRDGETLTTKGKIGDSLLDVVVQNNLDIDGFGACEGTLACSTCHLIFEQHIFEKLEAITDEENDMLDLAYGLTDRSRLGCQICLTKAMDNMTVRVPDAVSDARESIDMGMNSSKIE
The series is described as follows: Steady-state kinetic assay with [1,2-3H]-cholesterol (radio-HPLC). Also on record: M A S T R S P R P F N E I P S P G D N; Met-Ala (N-terminal start residues in place of the transit peptide and Ile40) (N); made in house; host or cells: E. coli (P450 11A1 in C41(DE3); Adx and AdR in E. coli). The following applies: ^3H-cholesterol substrate, triplicate. Type of series: biochemical. The procedure:
Samples (held at 4 °C) were injected (50 μl) using a Agilent 1100 Series HPLC system on a NovaPak (Waters) octadecylsilane (C18) 3.9 mm × 100 mm (4 μm) column (held at 25 °C) with a flow rate of 1.0 ml min^−1 using a gradient mobile phase of (A) H2O and (B) CH3CN as follows (all in % B, v/v): 0 min, 70%; 10 min, 100%; 35.5 min, 100%; 37 min, 30%; and 40 min, 70%). The flow rate was increased to 1.5 ml min^−1 (from the 10 min to 10.5 min interval) to decrease the retention of cholesterol and was later returned to 1.0 ml min^−1 (from the 35 min to 35.5 min interval) to prepare for the next injection. The column eluate was mixed (1:2, v/v) with FlowLogic U scintillation cocktail (LabLogic) and radioactivity (^3H) was detected using a β-RAM Model 5 radioflow detector (IN/US, LabLogic). Analytes were quantitated on the basis of their ^3H peak areas relative to the summed radioactivity of the four compounds of interest.
Figure S13. Steady-state kinetic assay of P450 11A1 with [1,2-^3H]-cholesterol. The enzyme reaction was performed in triplicate as described for the steady-state LC-MS assays, but with the use of ^3H-cholesterol (2 mCi mmol^-1) as the substrate. Product (^3H-pregnenolone) was detected by radio-HPLC as described (Experimental Methods). The highest rate measured was 6.7 ± 0.4 nmol product min^-1 (nmol P450)^-1.

The target in series [2] is T2, human cytochrome P450 11A1 (human, UniProt P05108 40-521).
T2 construct: cytochrome P450 11A1, human, recombinant, codon-optimized insert in pET23C(+); In one titration it was added as a preformed 1:1 complex with cholesterol; also called CYP11A1; P450scc; source: E. coli C41(DE3) with GroES/GroEL, purified (CHAPS solubilisation, Ni-NTA, dialysis)
T2 sequence (looked up): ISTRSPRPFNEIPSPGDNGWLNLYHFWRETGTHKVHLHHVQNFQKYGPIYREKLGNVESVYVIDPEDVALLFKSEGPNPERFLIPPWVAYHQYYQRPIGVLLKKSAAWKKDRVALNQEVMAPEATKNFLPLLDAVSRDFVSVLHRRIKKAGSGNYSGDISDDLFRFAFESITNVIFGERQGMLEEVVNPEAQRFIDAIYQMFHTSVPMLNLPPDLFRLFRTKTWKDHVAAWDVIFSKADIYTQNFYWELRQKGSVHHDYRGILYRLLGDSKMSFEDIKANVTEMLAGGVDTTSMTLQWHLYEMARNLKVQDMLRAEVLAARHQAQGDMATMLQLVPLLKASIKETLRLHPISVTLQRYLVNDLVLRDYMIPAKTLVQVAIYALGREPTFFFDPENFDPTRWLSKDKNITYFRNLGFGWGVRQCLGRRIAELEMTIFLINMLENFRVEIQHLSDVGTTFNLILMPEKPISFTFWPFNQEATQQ
The series is described as follows: other fluorescence titration; P450 11A1 (0-0.4 uM) titrated into Alexa 488-Adx (50 nM) in 100 mM potassium phosphate pH 7.4; quenching of fluorescence (excitation 493 nm, emission 500-600 nm); quadratic fit; without cholesterol. The settings on record: both partners purified.

Series [3] concerns the target T2, human cytochrome P450 11A1. The series is described as follows: other fluorescence titration; preformed 1:1 complex of P450 11A1 and cholesterol titrated into Alexa 488-Adx (50 nM) in 100 mM potassium phosphate pH 7.4; quenching of fluorescence (excitation 493 nm, emission 500-600 nm); quadratic fit; with cholesterol (equimolar to P450). The following applies: both partners purified.

For series [4], the system named is human P450 11A1. More on the design: method as in PMID 33271253. The following applies: surface plasmon resonance, human ref 46; read-out: Kd of P450 11A1-Adx complex, without sterol; cited from earlier work. Background: Surface plasmon resonance follows binding to a sensor surface in real time, without labels.
Another series relates to bovine P450 11A1. Also on record: method as in PMID 15181009. The following applies: surface plasmon resonance, bovine ref 47; read-out: Kd of P450 11A1-Adx complex, without sterol; cited from earlier work.

As to `[3H]C1C([3H])[C@@]2(C)C(=CC[C@H]3[C@@H]4CC[C@H]([C@H](C)CCCC(C)C)[C@@]4(C)CC[C@@H]32)C[C@H]1O` (some centres unmarked) [[1,2-^3H]-cholesterol, [1,2-^3H]-Cholesterol], the highest rate measured at human P450 11A1 [1] is 6.7 ± 0.4 nmol product min^-1 (nmol P450)^-1.

B1: Alexa Fluor 488-labeled adrenodoxin (natural protein, bovine, UniProt P00257 59-186, looked up)
chain: SSSEDKITVHFINRDGETLTTKGKIGDSLLDVVVQNNLDIDGFGACEGTLACSTCHLIFEQHIFEKLEAITDEENDMLDLAYGLTDRSRLGCQICLTKAMDNMTVRVPDAVSDARESIDMGMNSSKIE
modifications: Alexa Fluor 488 label (site not stated)
notes: also called Alexa 488-Adx; Adx
The Kd is the free concentration of one partner at which half of the binding sites on the other are occupied at equilibrium, for simple one-to-one binding. Regarding B1, the Kd in series [2] stood at 38 nM; in series [3] it was 8.2 nM.

B2: Adx: adrenodoxin, soluble iron-sulfur electron donor protein (recombinant bovine); used fluorescently labeled as Alexa 488-Adx (protein)
chain: SSSEDKITVHFINRDGETLTTKGKIGDSLLDVVVQNNLDIDGFGACEGTLACSTCHLIFEQHIFEKLEAITDEENDMLDLAYGLTDRSRLGCQICLTKAMDNMTVRVPDAVSDARESIDMGMNSSKIE
modifications: Alexa Fluor 488 label (site not stated)
notes: adrenodoxin, soluble iron-sulfur electron donor protein (recombinant bovine); used fluorescently labeled as Alexa 488-Adx
In the case of B2, the results for the Kd with human P450 11A1 [4] and in the series on bovine P450 11A1 were 24 nM and 13.4 nM, respectively.
